The text below walks through data of patent US20240368565A1 (PROMEGA, published 2024).

In assay [1] the target is T1, Biotin-HaloTag[3-19] (I2R)-4xGly/Ser-VS-HiBiT (N-terminal biotin).
T1 construct: Synthetic peptide; also called HaloTag[3-19](12R)-4×Gly/Ser-VS-HiBiT; DualTag peptide
T1 peptide: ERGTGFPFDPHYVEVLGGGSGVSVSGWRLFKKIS
Kind of assay: BLI; biotin-peptide on streptavidin probe; PBST, 25 C.

The target in assay [2] is Aga2-15xGly/Ser-EGFP-4xGly/Ser-HaloTag[3-19]-4xGly/Ser-…. Kind of assay: flow cytometry of yeast displaying the tag; reporter bound, washed, then JF549 HaloTag ligand.
The target of assay [3] is Aga2-15xGly/Ser-4xGly/Ser-HaloTag[3-19]-4xGly/Ser-VS-HiBiT. Described as above.
The target in assay [4] is Aga2-15xGly/Ser-EGFP-4xGly/Ser-HaloTag[3-19]-4xGly/Ser-VS-HiBiT. The description is as above.
The target in assay [5] is Aga2-15xGly/Ser-EGFP-4xGly/Ser-HaloTag[3-19]-4xGly/Ser-…. The assay is described as above. This is another data set of the same source.
For assay [6] the target is unchanged. Described as above. This is another data set of the same source.
Assay [7] addresses T2, Biotin-HaloTag[3-19] (I2R)-4xGly/Ser-VS-HiBiT (K8R + K9R) (N-terminal biotin (on Glu1), used for immobilisation on streptavidin probes; not carried by the letters).
T2 construct: Synthetic peptide
T2 peptide: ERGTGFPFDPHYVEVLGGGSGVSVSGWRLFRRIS
Kind of assay: BLI; biotin-peptide on streptavidin probe; PBST, 25 C.

The target of assay [8] is T3, Biotin-HaloTag[3-19] (I2R)-4xGly/Ser-HiBiT (N-terminal biotin (on Glu1), used for immobilisation on streptavidin probes; not carried by the letters).
T3 construct: Synthetic peptide
T3 peptide: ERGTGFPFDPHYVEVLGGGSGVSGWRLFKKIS
The description is as above.

Assay [9] has as its target T4, VS-HiBiT-HaloTag[3-19] (I2R) (not fully specified; N-terminal biotin (on Val1) per the head of Table 1 ('All peptides are biotinylated at the N-terminus'), though Table 2 does not print Biotin for this entry; not carried by the …).
T4 construct: Synthetic peptide
Described as above.

Assay [10] has as its target T5, Biotin-VS-HiBiT-5xGly/Ser-HaloTag[3-19] (I2R) (N-terminal biotin (on Val1), used for immobilisation on streptavidin probes; not carried by the letters).
T5 construct: Synthetic peptide
T5 peptide: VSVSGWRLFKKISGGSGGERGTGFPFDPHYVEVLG
Described as above.

For assay [11], the target named is T6, Biotin-HaloTag[3-19] (I2R)-VS-HiBiT (N-terminal biotin (on Glu1), used for immobilisation on streptavidin probes; not carried by the letters).
T6 construct: Synthetic peptide
T6 peptide: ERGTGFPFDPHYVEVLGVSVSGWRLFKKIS
The description is as above.

B1: HaloTag[22-297](M2F)-12xGly/Ser-LgBiT-3xGly/Ser-6xHis (other)
chain: MFHYVDVGPRDGTPVLFLHGNPTSSYVWRNIIPHVAPTHRCIAPDLIGMGKSDKPDLGYFFDDHVRFMDAFIEALGLEEVVLVIHDWGSALGFHWAKRNPERVKGIAFMEFIRPIPTWDEWPEFARETFQAFRTTDVGRKLIIDQNVFIEGTLPMGVVRPLTEVEMDHYREPFLNPVDREPLWRFPNELPIAGEPANIVALVEEYMDWLHQSPVPKLLFWGTPGVLIPPAEAARLAKSLPNCKAVDIGPGLNLLQEDNPDLIGSEIARWLSTLEISGGSGGSGGGGSGGMVFTLEDFVGDWEQTAAYNLDQVLEQGGVSSLLQNLAVSVTPIQRIVRSGENALKIDIHVIIPYEGLSADQMAQIEEVFKVVYPVDDHHFKVILPYGTLVIDGVTPNMLNYFGRPYEGIAVFDGKKITVTGTLWNGNKIIDERLITPDGSMLFRVTINSGSGHHHHHH
notes: Purified tandem polypeptide reporter (large split-HaloTag fragment fused to LgBiT); also called Reporter
For B1, in assay [1], the Kd was 1.61 nM. For the same molecule, the koff in assay [1] was determined as 8.34e-05 s⁻¹. For the same molecule, the kon in assay [1] came out at 51900 M⁻¹ s⁻¹. Moreover, the “percent of cells in the JF549+ gate” value in [2] is 44.8%; in assay [3], 48.9%; in assay [4] it was 46.4%; in assay [5], 6.96%; in assay [6], 44.2%.

B2: HaloTag[22-297](M2F + D53G + K140E)-12xGly/Ser-LgBiT-3xGly/Ser-6xHis (other)
chain: MFHYVDVGPRDGTPVLFLHGNPTSSYVWRNIIPHVAPTHRCIAPDLIGMGKSGKPDLGYFFDDHVRFMDAFIEALGLEEVVLVIHDWGSALGFHWAKRNPERVKGIAFMEFIRPIPTWDEWPEFARETFQAFRTTDVGRELIIDQNVFIEGTLPMGVVRPLTEVEMDHYREPFLNPVDREPLWRFPNELPIAGEPANIVALVEEYMDWLHQSPVPKLLFWGTPGVLIPPAEAARLAKSLPNCKAVDIGPGLNLLQEDNPDLIGSEIARWLSTLEISGGSGGSGGGGSGGMVFTLEDFVGDWEQTAAYNLDQVLEQGGVSSLLQNLAVSVTPIQRIVRSGENALKIDIHVIIPYEGLSADQMAQIEEVFKVVYPVDDHHFKVILPYGTLVIDGVTPNMLNYFGRPYEGIAVFDGKKITVTGTLWNGNKIIDERLITPDGSMLFRVTINSGSGHHHHHH
In the case of B2, the kon worked out at 71400 M⁻¹ s⁻¹ in [7]; 61300 M⁻¹ s⁻¹ in [8]; 110000 M⁻¹ s⁻¹ in assay [9]; 88700 M⁻¹ s⁻¹ in assay [10]; 84800 M⁻¹ s⁻¹ in [11]; 83800 M⁻¹ s⁻¹ in assay [1]. Further, the Kd in [8] turned out to be 0.323 nM; in assay [9], 0.613 nM; in [10], 0.782 nM; in assay [11], 0.713 nM; in assay [1], 0.576 nM. In addition, the koff in assay [8] worked out at 1.98e-05 s⁻¹; in assay [9], 6.77e-05 s⁻¹; in assay [10], 6.94e-05 s⁻¹; in [11] it was 6.05e-05 s⁻¹; in [1], 4.82e-05 s⁻¹.
